Assay results taken from the supplement of paper PMC10126150.
± gives the standard deviation of the averaged measurements.

Test system: ATP
Assay: switch fluorescence ratio, 500 uM ATP over buffer (Cy3 cluster intensity, sum of 5 cycles each) (fold (ratio)); higher = stronger signal-on switching upon ATP binding; sequences stand for … in TCGTCGGCAGCGTCAGATGTGTATAAGAGACAGTTTTTTTTTTTTTTTTTTTTTTTTT…TC
Conditions: aptamer strand: ATP DNA aptamer (quencher-CACCTGGGGGAGTATTGCGGAGGAAGG + anchor), 100 nM annealed; ATP concentration: 500 uM
Summary of the method: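 The quencher-labelled ATP aptamer, at 100 nM, was annealed to Cy3-labelled switching-strand clusters on a modified Illumina MiSeq flow-cell. The clusters were imaged in selection buffer, then after 15 min with 500 uM ATP at 22 °C, and this buffer/ATP cycle ran five times with NaOH stripping and re-annealing between runs. Per-cluster fluorescence ratios, summed target-cycle over summed buffer-cycle Cy3 intensity, were averaged per switch-domain sequence. Clusters outside 100-1000 RFU were excluded.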
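Further: ATP exposure 15 min at 22 °C before imaging.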

Sequence	switch fluorescence ratio
AGGGCAAAAG	1.03 ± 0.006
AGGGCAATGG	1.29 ± 0.38
AGGGCAATGT	1.11 ± 0.032
AGGGCACATA	1.0764 ± 9.5e-05
AGGGCACGGG	0.982 ± 0.023
AGGGCAGGAC	1.41 ± 0.024
AGGGCAGGG	0.975 ± 0.065
AGGGCAGGGA	0.993 ± 0.017
AGGGCAGGTG	2.65 ± 0.13
AGGGCATTAG	1 ± 0.1
AGGGCCGGTC	1.06 ± 0.04
AGGGCGGCTG	0.985 ± 0.024
AGGGCGGGGA	1.01 ± 0.058
AGGGCGGGGC	0.944 ± 0.061
AGGGCGGTAT	1.0286 ± 0.00059
AGGGCGGTCT	1.07 ± 0.18
AGGGCGTAAG	0.9716 ± 0.0055
AGGGCGTTTC	1.009 ± 0.0032
AGGGCTCGTT	0.9801 ± 0.0094
AGGGCTGCTA	0.996 ± 0.046
AGGGCTTGCT	0.987 ± 0.038
AGGGGAAAAG	0.993 ± 0.049
AGGGGAAAGT	0.954 ± 0.052
AGGGGAATCG	1.01 ± 0.016
AGGGGACGAT	0.9887 ± 0.0056

Sequence	switch fluorescence ratio
AGGGGAGGTA	0.965 ± 0.021
AGGGGAGTTG	0.995 ± 0.027
AGGGGAGTTT	1 ± 0.041
AGGGGCAGAG	1.06 ± 0.092
AGGGGCCCGT	0.99 ± 0.038
AGGGGCGACT	0.984 ± 0.03
AGGGGCGGGT	1.23 ± 0.46
AGGGGCGTAA	1 ± 0.05
AGGGGCGTGC	0.977 ± 0.015
AGGGGCTATG	1.01 ± 0.032
AGGGGCTGTG	0.9991 ± 0.0074
AGGGGGAAAC	1.01 ± 0.027
AGGGGGAACT	1.03 ± 0.033
AGGGGGACCC	1 ± 0.058
AGGGGGAGCT	1.005 ± 0.0056
AGGGGGAGTG	0.987 ± 0.036
AGGGGGATTA	0.993 ± 0.019
AGGGGGCCTT	1.0113 ± 0.00015
AGGGGGGAAA	1.01 ± 0.027
AGGGGGGCAG	0.987 ± 0.032
AGGGGGGGCC	0.992 ± 0.038
AGGGGGGGCT	0.985 ± 0.024
AGGGGGGGGG	1.02 ± 0.072
AGGGGGGTAC	0.991 ± 0.041
AGGGGGGTTC	0.994 ± 0.023

Sequence	switch fluorescence ratio
AGGGGGTACA	1.01 ± 0.016
AGGGGGTGTT	1.02 ± 0.015
AGGGGGTTGG	1 ± 0.032
AGGGGTAAGA	1.01 ± 0.032
AGGGGTAGGA	0.99 ± 0.034
AGGGGTAGGT	0.982 ± 0.019
AGGGGTATGC	0.979 ± 0.033
AGGGGTCCGT	0.969 ± 0.018
AGGGGTGTCC	1.01 ± 0.029
AGGGGTTAGT	0.999 ± 0.036
AGGGGTTATA	1.01 ± 0.024
AGGGGTTTTG	0.989 ± 0.022
AGGGTAAATA	1.0193 ± 0.00016
AGGGTAACGG	0.995 ± 0.028
AGGGTAATCA	0.993 ± 0.03
AGGGTACCTG	1.01 ± 0.015
AGGGTACTTG	1 ± 0.03
AGGGTAGATA	1 ± 0.044
AGGGTAGATT	0.977 ± 0.054
AGGGTAGCGA	1.03 ± 0.017
AGGGTAGCGG	0.955 ± 0.012
AGGGTAGCTA	0.958 ± 0.016
AGGGTAGGTC	1.06 ± 0.087
AGGGTATCGC	0.9932 ± 0.0065
AGGGTCAATC	1.04 ± 0.05

Sequence	switch fluorescence ratio
AGGGTCAGGT	1 ± 0.013
AGGGTCGGCG	1.01 ± 0.027
AGGGTGGAAT	1.068 ± 0.01
AGGGTGGGG	0.928 ± 0.076
AGGGTGGGGA	1.01 ± 0.036
AGGGTGTCGA	1.02 ± 0.012
AGGGTGTGCT	1.015 ± 0.0042
AGGGTTAAGG	1.017 ± 0.0078
AGGGTTACGA	0.976 ± 0.038
AGGGTTACGC	1.04 ± 0.11
AGGGTTATAA	0.969 ± 0.033
AGGGTTATGA	0.995 ± 0.021
AGGGTTCTTT	1 ± 0.029
AGGGTTGAAC	1 ± 0.023
AGGGTTGCGA	1.02 ± 0.025
AGGGTTTAAA	1 ± 0.036
AGGGTTTAGC	1.02 ± 0.032
AGGGTTTAGT	1 ± 0.01
AGGTAAGGGC	1.01 ± 0.015
AGGTAATAGT	1.03 ± 0.028
AGGTACACCT	1.08 ± 0.053
AGGTACGAGG	1.006 ± 0.003
AGGTACGATT	1.02 ± 0.034
AGGTACGGGA	1.03 ± 0.074
AGGTACTAGG	1.036 ± 0.0041

Sequence	switch fluorescence ratio
AGGTAGAATA	0.989 ± 0.031
AGGTAGAGTA	0.97 ± 0.034
AGGTAGGCGG	0.969 ± 0.055
AGGTAGGGAA	0.9928 ± 0.0037
AGGTAGGGGC	1.02 ± 0.026
AGGTAGGGGT	1.01 ± 0.02
AGGTATAAGG	1.02 ± 0.019
AGGTATACCT	1.014 ± 0.0028
AGGTATGGGG	0.998 ± 0.034
AGGTATTAGG	0.988 ± 0.041
AGGTCAGGCA	1.002 ± 0.0075
AGGTCCGCGA	2.62 ± 0.17
AGGTGAAGTT	1.02 ± 0.062
AGGTGAGATT	1.02 ± 0.018
AGGTGATTTT	0.991 ± 0.013
AGGTGCAGCA	1.06 ± 0.15
AGGTGCAGGC	0.863 ± 0.082
AGGTGCAGTG	1.015 ± 0.0042
AGGTGCGGGA	1.02 ± 0.052
AGGTGGCGTG	0.944 ± 0.022
AGGTGGCTAG	1.026 ± 0.0052
AGGTGGGCTG	0.963 ± 0.024
AGGTGGGGG	0.979 ± 0.015
AGGTGGGGGA	0.995 ± 0.031
AGGTGGGGTG	1.03 ± 0.023

Sequence	switch fluorescence ratio
AGGTGTACTG	1.03 ± 0.058
AGGTGTAGTG	0.987 ± 0.016
AGGTGTCGCG	1.01 ± 0.02
AGGTGTGCGC	1.01 ± 0.07
AGGTGTTCTA	1.02 ± 0.021
AGGTGTTGT	1.03 ± 0.053
AGGTGTTTTT	1.03 ± 0.032
AGGTTAAAA	1.03 ± 0.075
AGGTTACCGC	1.03 ± 0.048
AGGTTATAGG	1.05 ± 0.091
AGGTTATGGT	0.992 ± 0.052
AGGTTATTTG	0.978 ± 0.015
AGGTTCAGGC	0.9821 ± 0.0086
AGGTTCATTA	1.01 ± 0.023
AGGTTCCACG	0.996 ± 0.03
AGGTTCGTTC	0.97 ± 0.039
AGGTTCTGGG	1.01 ± 0.03
AGGTTCTTA	0.994 ± 0.06
AGGTTGAACG	0.985 ± 0.046
AGGTTGCATG	1.02 ± 0.079
AGGTTGGGTA	0.979 ± 0.015
AGGTTGGTGG	1 ± 0.016
AGGTTGTATC	1.01 ± 0.028
AGGTTGTTAA	1.0085 ± 0.0005
AGGTTTATCA	0.991 ± 0.028

Sequence	switch fluorescence ratio
AGGTTTATGC	0.977 ± 0.066
AGGTTTCGAG	0.997 ± 0.023
AGGTTTTGCA	0.991 ± 0.019
AGGTTTTGGT	1 ± 0.055
AGTAAAAAAG	1.042 ± 0.0073
AGTAAAATGT	1 ± 0.021
AGTAAAGGAA	0.999 ± 0.014
AGTAAAGTTG	0.991 ± 0.024
AGTAACAGCC	1.001 ± 0.0066
AGTAACTTGA	1 ± 0.013
AGTAAGGCTA	1 ± 0.051
AGTAAGGGCT	0.99 ± 0.015
AGTAAGGGTA	1.0185 ± 0.00081
AGTAAGTTTT	1.032 ± 0.0011
AGTAATAAGT	0.979 ± 0.047
AGTAATCGCT	0.985 ± 0.01
AGTAATTGGT	0.9954 ± 0.0088
AGTACGAGGA	1.04 ± 0.035
AGTACGGAAG	1.02 ± 0.024
AGTACTGTGG	0.996 ± 0.032
AGTAGAATCA	1.01 ± 0.026
AGTAGAATCG	0.992 ± 0.033
AGTAGATTAA	0.986 ± 0.011
AGTAGGGGTT	0.979 ± 0.02
AGTAGGTCTG	1.04 ± 0.046

Sequence	switch fluorescence ratio
AGTAGGTTAG	0.989 ± 0.04
AGTATAACGA	1.06 ± 0.016
AGTATAGGGT	0.972 ± 0.029
AGTATAGTAG	0.983 ± 0.019
AGTATATCGC	1 ± 0.022
AGTATATCTG	0.974 ± 0.02
AGTATCGAGC	1.02 ± 0.049
AGTATCTCTT	1.0161 ± 4.4e-05
AGTATGGGGT	0.996 ± 0.018
AGTATGTAAA	1.02 ± 0.017
AGTATGTATA	0.9957 ± 0.0083
AGTATGTTTC	1 ± 0.025
AGTATTCGGG	0.976 ± 0.058
AGTATTCTAT	1.004 ± 0.0034
AGTATTGTCT	1.039 ± 0.003
AGTATTGTTT	1.01 ± 0.02
AGTCAAAAAA	1.17 ± 0.3
AGTCAGGGTC	0.99 ± 0.032
AGTCAGTGAC	1.009 ± 0.0026
AGTCATATAG	1.062 ± 0.0056
AGTCATTAGG	1.03 ± 0.041
AGTCATTCTC	0.9841 ± 0.003
AGTCATTGTT	0.989 ± 0.012
AGTCCAAGGC	1.02 ± 0.065
AGTCCCCCTA	1.08 ± 0.069
